The supplement of paper PMC6757056
± gives the standard deviation of the averaged measurements.

B1: library; a variant is named by its letters at N, in order (parent)
chain: GCUGUCACCGAGAAACUGUGAAGUAUAUCUUAAACCUGGGCACUUAAAAGAUAUAUGGAGUUAGUAGUGCAACCUGCUCGGUCUGAUGAGUCCNNNNNNGGACGAAACAGC

Assays:
cyclic di-GMP [1] = variants of: B1; assay: normalized RNA/DNA level without ligand (relative to sTRSVctl = 100) (log10 (% of sTRSVctl)); HEK293T; ligand: cyclic di-GMP (c-di-GMP-II aptamer); higher = less ribozyme self-cleavage, higher mRNA level; details: reporter: mCherry (pCS4076), ligand present: no
In short: (§1)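 For each 6-well well, 4 µg of library plasmid encoding mCherry-linked ribozyme switches, or eGFP-linked ones in some ligand experiments, was transfected into HEK293T. Any ligand was added 1 h before transfection, and RNA was extracted with EDTA 72 h after it, then reverse-transcribed, amplified, barcoded and sequenced. RNA level was obtained by dividing RNA reads by DNA reads, normalizing to a spiked-in non-cleaving sequence or to the top sequences, then scaling and log-transforming. The top set was 25 sequences, scaling was ×100 with log10, and ≥100 DNA reads were required.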

cyclic di-GMP [2] = variants of: B1; assay: normalized RNA/DNA level with ligand (relative to sTRSVctl = 100) (log10 (% of sTRSVctl)); HEK293T; ligand: cyclic di-GMP (c-di-GMP-II aptamer); ligand concentration (+) RNA-Seq: 1 mM; higher = less ribozyme self-cleavage, higher mRNA level; details: reporter: mCherry (pCS4076), ligand present: yes
In short: as §1

| Variant | normalized RNA/DNA level without ligand (log10) (cyclic di-GMP [1]) | normalized RNA/DNA level with ligand (log10) (cyclic di-GMP [2]) |
| --- | --- | --- |
| UACGAG | 1.674 ± 0.0019 | 1.82 ± 0.1 |
| GAAUUA | 1.55 ± 0.026 | 1.74 ± 0.097 |
| GAAUUC | 1.8 ± 0.021 | 1.92 ± 0.09 |
| GAAUUU | 1.652 ± 0.015 | 1.85 ± 0.12 |
| UAAUUG | 1.71 ± 0.04 | 1.83 ± 0.13 |
| UAAUUC | 1.73 ± 0.021 | 1.84 ± 0.099 |
| UAAUUA | 1.7 ± 0.018 | 1.85 ± 0.062 |
| CACCAU | 1.593 ± 0.0031 | 1.75 ± 0.11 |
| CACCAC | 1.675 ± 0.0098 | 1.85 ± 0.096 |
| CACCAG | 1.74 ± 0.03 | 1.88 ± 0.11 |
| CACCAA | 1.4 ± 0.088 | 1.57 ± 0.1 |
| UAAGUC | 1.663 ± 0.0049 | 1.8 ± 0.11 |
| CAAGGA | 1.46 ± 0.077 | 1.64 ± 0.064 |
| CAAGGU | 1.64 ± 0.037 | 1.8 ± 0.1 |
| CAAGGC | 1.705 ± 0.0097 | 1.82 ± 0.12 |
| CAAGGG | 1.6 ± 0.063 | 1.8 ± 0.072 |
| AAAUAC | 1.665 ± 0.0071 | 1.8 ± 0.11 |
| AAAUAG | 1.54 ± 0.025 | 1.7 ± 0.16 |
| GACAGU | 1.662 ± 0.0086 | 1.79 ± 0.11 |
| GACAGG | 1.759 ± 0.0092 | 1.85 ± 0.037 |
| GACAGC | 1.74 ± 0.087 | 1.87 ± 0.14 |
| AACAGC | 1.63 ± 0.078 | 1.78 ± 0.14 |
| AACAGG | 1.5 ± 0.036 | 1.66 ± 0.14 |
| GAAGUA | 1.64 ± 0.021 | 1.76 ± 0.061 |

| Variant | normalized RNA/DNA level without ligand (log10) (cyclic di-GMP [1]) | normalized RNA/DNA level with ligand (log10) (cyclic di-GMP [2]) |
| --- | --- | --- |
| GAAGUG | 1.732 ± 0.0044 | 1.81 ± 0.095 |
| GAAGUC | 1.59 ± 0.021 | 1.74 ± 0.038 |
| GACUGA | 1.57 ± 0.041 | 1.72 ± 0.12 |
| UACAGG | 1.65 ± 0.044 | 1.82 ± 0.081 |
| UACAGC | 1.619 ± 0.0088 | 1.77 ± 0.11 |
| UACAGU | 1.62 ± 0.021 | 1.8 ± 0.069 |
| GACGCG | 1.81 ± 0.055 | 1.88 ± 0.045 |
| GACGCU | 1.71 ± 0.043 | 1.81 ± 0.097 |
| GACGCA | 1.77 ± 0.055 | 1.88 ± 0.085 |
| GACGCC | 1.75 ± 0.092 | 1.83 ± 0.11 |
| AAAUUA | 1.54 ± 0.04 | 1.75 ± 0.11 |
| AAAUUC | 1.6899 ± 0.00096 | 1.85 ± 0.11 |
| AAAUUU | 1.67 ± 0.067 | 1.82 ± 0.17 |
| GACUAC | 1.7044 ± 0.00077 | 1.82 ± 0.15 |
| GACUAU | 1.645 ± 0.009 | 1.81 ± 0.12 |
| GACUAG | 1.668 ± 0.0042 | 1.79 ± 0.16 |
| GACUAA | 1.55 ± 0.045 | 1.74 ± 0.12 |
| GACCGC | 1.81 ± 0.036 | 1.8 ± 0.083 |
| GACCGU | 1.74 ± 0.066 | 1.86 ± 0.03 |
| GACCUU | 1.69 ± 0.0029 | 1.86 ± 0.13 |
| GACCUC | 1.72 ± 0.047 | 1.86 ± 0.12 |
| UAAUGU | 1.652 ± 0.0062 | 1.78 ± 0.087 |
| UAAUGG | 1.676 ± 0.013 | 1.81 ± 0.087 |
| AACACG | 1.55 ± 0.073 | 1.74 ± 0.088 |

| Variant | normalized RNA/DNA level without ligand (log10) (cyclic di-GMP [1]) | normalized RNA/DNA level with ligand (log10) (cyclic di-GMP [2]) |
| --- | --- | --- |
| AACACC | 1.56 ± 0.007 | 1.73 ± 0.12 |
| AACUAG | 1.616 ± 0.0088 | 1.78 ± 0.13 |
| AACUAU | 1.662 ± 0.014 | 1.79 ± 0.11 |
| AACUAC | 1.7 ± 0.019 | 1.84 ± 0.12 |
| GAAUGU | 1.579 ± 0.014 | 1.76 ± 0.07 |
| AACCGC | 1.718 ± 0.0043 | 1.86 ± 0.1 |
| AACCGU | 1.54 ± 0.056 | 1.74 ± 0.091 |
| AACCGA | 1.5 ± 0.1 | 1.61 ± 0.089 |
| UACCCG | 1.766 ± 0.014 | 1.9 ± 0.063 |
| UACCCC | 1.7914 ± 0.0016 | 1.89 ± 0.11 |
| CACAGG | 1.68 ± 0.029 | 1.804 ± 0.0089 |
| CACAGC | 1.729 ± 0.0089 | 1.84 ± 0.085 |
| GACCCU | 1.779 ± 0.0057 | 1.87 ± 0.089 |
| GACCCA | 1.75 ± 0.02 | 1.85 ± 0.093 |
| GACCCG | 1.7824 ± 0.00091 | 1.86 ± 0.11 |
| GACCCC | 1.8 ± 0.055 | 1.88 ± 0.14 |
| GACACG | 1.7112 ± 0.0013 | 1.82 ± 0.12 |
| GACACA | 1.63 ± 0.018 | 1.77 ± 0.07 |
| GACACC | 1.71 ± 0.044 | 1.83 ± 0.075 |
| GACAUG | 1.61 ± 0.032 | 1.75 ± 0.12 |
| GACAUU | 1.66 ± 0.044 | 1.8 ± 0.074 |
| GACAUC | 1.67 ± 0.037 | 1.84 ± 0.059 |
| AAAGCG | 1.689 ± 0.0061 | 1.78 ± 0.14 |
| UACUAA | 1.71 ± 0.014 | 1.81 ± 0.061 |

| Variant | normalized RNA/DNA level without ligand (log10) (cyclic di-GMP [1]) | normalized RNA/DNA level with ligand (log10) (cyclic di-GMP [2]) |
| --- | --- | --- |
| UACUAG | 1.697 ± 0.012 | 1.84 ± 0.09 |
| UACUAC | 1.75 ± 0.037 | 1.87 ± 0.08 |
| CAAUGC | 1.76 ± 0.076 | 1.83 ± 0.14 |
| CAAUGA | 1.53 ± 0.056 | 1.74 ± 0.12 |
| CAAUGG | 1.664 ± 0.0083 | 1.8 ± 0.087 |
| GACAAU | 1.59 ± 0.062 | 1.74 ± 0.071 |
| GACAAA | 1.47 ± 0.11 | 1.66 ± 0.077 |
| CAAGCU | 1.67 ± 0.021 | 1.83 ± 0.071 |
| CAAUUC | 1.66 ± 0.019 | 1.82 ± 0.065 |
| CAAUUA | 1.32 ± 0.1 | 1.53 ± 0.05 |
| CAAUUG | 1.733 ± 0.0033 | 1.87 ± 0.065 |
| CAAUUU | 1.51 ± 0.095 | 1.71 ± 0.081 |
| CACGCU | 1.722 ± 0.0093 | 1.84 ± 0.12 |
| CACGCC | 1.81 ± 0.044 | 1.86 ± 0.022 |
| CACGCG | 1.73 ± 0.028 | 1.83 ± 0.062 |
| UAAGGC | 1.66 ± 0.058 | 1.81 ± 0.056 |
| UAAGGG | 1.58 ± 0.031 | 1.73 ± 0.13 |
| UAAGGU | 1.579 ± 0.013 | 1.77 ± 0.073 |
| AAAGUA | 1.42 ± 0.076 | 1.66 ± 0.12 |
| AAAGUG | 1.52 ± 0.099 | 1.67 ± 0.074 |
| GAAUCG | 1.67 ± 0.041 | 1.8 ± 0.096 |
| GAAUCC | 1.75 ± 0.058 | 1.86 ± 0.076 |
| GAAUCU | 1.698 ± 0.0076 | 1.82 ± 0.12 |
| GAAUCA | 1.638 ± 0.0066 | 1.82 ± 0.1 |

| Variant | normalized RNA/DNA level without ligand (log10) (cyclic di-GMP [1]) | normalized RNA/DNA level with ligand (log10) (cyclic di-GMP [2]) |
| --- | --- | --- |
| UACAAU | 1.64 ± 0.017 | 1.77 ± 0.13 |
| UACAAA | 1.65 ± 0.041 | 1.8 ± 0.057 |
| UACAAG | 1.69 ± 0.02 | 1.8 ± 0.12 |
| CACAUC | 1.682 ± 0.0036 | 1.74 ± 0.034 |
| CACAUG | 1.717 ± 0.01 | 1.84 ± 0.095 |
| CACAAU | 1.47 ± 0.11 | 1.68 ± 0.097 |
| CACAAC | 1.59 ± 0.028 | 1.77 ± 0.085 |
| CACAAG | 1.66 ± 0.017 | 1.83 ± 0.11 |
| UACACU | 1.714 ± 0.014 | 1.84 ± 0.059 |
| UACACG | 1.76 ± 0.029 | 1.86 ± 0.088 |
| UACACC | 1.6664 ± 0.0013 | 1.8 ± 0.1 |
| UACACA | 1.7 ± 0.041 | 1.84 ± 0.083 |
| AAAGGC | 1.6 ± 0.044 | 1.77 ± 0.14 |
| CACCGC | 1.759 ± 0.015 | 1.85 ± 0.13 |
| CACCGU | 1.706 ± 0.0036 | 1.81 ± 0.092 |
| CACCGG | 1.754 ± 0.011 | 1.89 ± 0.12 |
| CACCGA | 1.6252 ± 0.00013 | 1.8 ± 0.1 |
| UACGUU | 1.684 ± 0.0031 | 1.84 ± 0.093 |
| UACGUC | 1.69 ± 0.06 | 1.81 ± 0.13 |
| UACGUA | 1.64 ± 0.018 | 1.8 ± 0.056 |
